Reference: PMC12408736

Test system: Rap1 (Naumovozyma castellii)
Assay: competition EMSA
Details: labeled N1 probe, 10 mM Tris-HCl pH 7.5, 7 mM MgCl2, 8% glycerol, 10 fmol probe in 15 µl, ~0.6 µg Rap1 extract, 1.5 µg non-specific competitor (E. coli DNA, salmon sperm DNA …); for binding signal: 400x competitor, scale: fold shifted probe remaining vs telomeric competitor

GTGTCGTTAGGTACGGAGGGTGTTGTTTGGAATATG (double strand) [ST-4]
binding signal: 33

AAGATTTGTATAGTCTGGGTAATGTATGTCAT (double strand) [ST-3]
binding signal: 91

TGTTGTTGATGGTGGTGTTGTTTTTTTGTC (double strand) [ST-2]
binding signal: 66

AAGGATAGTTGGTCTGGGTGAGGATATTCTGTT (double strand) [ST-1]
binding signal: 60

GTCTGGGTGTCTGGGTGTC (double strand) [telomeric ds-probe (19 bp)]
binding signal (fold shifted probe remaining (reference)) (unlabeled N1 as competitor): 1
